This is an account of results in patent US20260102487A1 (Amgen, published 2026).

In test [1] the target is T1, cynomolgus IL-2Rγ (recombinant protein and on cells) (cynomolgus, UniProt A0A2K5VGJ6 23-254).
T1 construct: also called cynomolgus IL-2RG
T1 sequence: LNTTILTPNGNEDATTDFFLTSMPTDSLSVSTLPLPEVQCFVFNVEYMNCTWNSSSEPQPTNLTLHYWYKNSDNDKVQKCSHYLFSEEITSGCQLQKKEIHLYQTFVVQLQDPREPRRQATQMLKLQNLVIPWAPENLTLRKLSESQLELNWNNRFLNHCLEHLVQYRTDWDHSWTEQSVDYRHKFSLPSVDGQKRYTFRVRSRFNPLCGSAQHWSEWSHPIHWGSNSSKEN
Put plainly: biolayer interferometry (Octet Qk384), antibody captured on anti-human Fc (AHC) sensors, antigen 7.8-500 nM in solution, 1:1 fit, KD = kd/ka. How it is done:
(§1) All kinetics measurement experiments were performed on a ForteBio Octet Qk384 instrument using anti-human Fc capture (AHC, 18-5005) sensors. The bispecific heavy chain-only antibodies and antigens were diluted to final concentrations in Kinetics buffer (0.02% Tween20, 0.1% BSA, 0.05% sodium azide, 1X PBS). Kinetics measurements were against the following antigens: human IL-2RB (AcroBiosystems), human TL-2RG (AcroBiosystems), cynomolgus IL-2RB (Sino Biological), cynomolgus IL-2RG (expressed and purified in house using ExpiCHO expression system followed by Ni-NTA his-tag purification). The antibodies were loaded on the AHC sensors at 5 μg/mL for maximum loading. Following a short baseline in Kinetics buffer, the sensors were exposed to a series of analyte concentrations (7.8 nM to 500 nM) for association step and background subtraction was used to correct for sensor drifting. Dissociation was monitored in Kinetics buffer. The capture surfaces were regenerated for 60s. All experiments were performed with shaking at 1000 rpm. ForteBio's data analysis software was used to fit the data to a 1:1 binding model to extract an association rate and dissociation rate. The KD was calculated using the ratio kd/ka.

Test [2] addresses T2, human IL-2Rγ (recombinant protein and on cells) (human, UniProt P31785 23-262, limits assumed).
T2 construct: recombinant protein and of cells together; also called IL2RG; CD132
T2 sequence: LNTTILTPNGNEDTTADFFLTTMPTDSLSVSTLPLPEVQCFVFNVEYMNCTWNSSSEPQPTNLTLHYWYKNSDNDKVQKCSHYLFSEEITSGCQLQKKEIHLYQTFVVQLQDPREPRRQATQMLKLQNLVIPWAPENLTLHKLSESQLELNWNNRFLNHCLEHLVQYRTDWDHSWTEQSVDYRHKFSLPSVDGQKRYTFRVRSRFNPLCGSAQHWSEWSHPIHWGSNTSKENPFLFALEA
Described as above. How it is done: as §1

Test [3] concerns the target T3, cynomolgus IL-2Rβγ receptor on cynomolgus T-cells (PBMCs) (cynomolgus).
T3 construct: whole, on cells; Endogenous receptor on primary cynomolgus cells
The test is described as follows: flow cytometry cell binding on cynomolgus CD8+ T-cells (PBMC), gMFI as fold over secondary antibody only. Here is the method:
(§2) All washes and dilutions of cells, antibodies, and reagents were performed using flow buffer (1X PBS, 1% BSA, 0.1% NaN3, pH 7.4). Staining was performed in a round-bottom 96-well plate (Corning) seeded at 100,000 cells/well, and all incubations were performed at 4° C. or on ice. […] The cells were washed twice with 200 μL flow buffer. The cells were then incubated for 30 minutes with detection antibody (Goat F(ab′)2 Anti-Human IgG-PE, Southern Biotech) at 0.625 μg/mL in flow buffer. Following 2 more washes, the cells were resuspended in a final volume of 150 μL of flow buffer. The cells were analyzed on a BD FACSCelesta or a Guava easyCyte 8-HT flow cytometer. At least 3000 events were collected, and PE geometric mean fluorescence intensity was plotted as a fold over background (cells incubated with secondary detection antibody only). In some secondary screens involving human or cynomolgus PBMCs, an additional CD4 antibody (BioLegend) and/or CD8 antibody (BioLegend) was included to further characterize cell binding.
For orientation: Flow cytometry measures light scatter and fluorescence of single cells or particles in a stream.

Test [4] has as its target T4, human IL-2Rβγ receptor on primary human T-cells and NK-cells (PBMCs) (human, UniProt P14784 27-551; P31785 23-369).
T4 construct: Endogenous receptor on primary cells; also called dimeric IL-2Rβγ receptor complex
T4 sequence 1: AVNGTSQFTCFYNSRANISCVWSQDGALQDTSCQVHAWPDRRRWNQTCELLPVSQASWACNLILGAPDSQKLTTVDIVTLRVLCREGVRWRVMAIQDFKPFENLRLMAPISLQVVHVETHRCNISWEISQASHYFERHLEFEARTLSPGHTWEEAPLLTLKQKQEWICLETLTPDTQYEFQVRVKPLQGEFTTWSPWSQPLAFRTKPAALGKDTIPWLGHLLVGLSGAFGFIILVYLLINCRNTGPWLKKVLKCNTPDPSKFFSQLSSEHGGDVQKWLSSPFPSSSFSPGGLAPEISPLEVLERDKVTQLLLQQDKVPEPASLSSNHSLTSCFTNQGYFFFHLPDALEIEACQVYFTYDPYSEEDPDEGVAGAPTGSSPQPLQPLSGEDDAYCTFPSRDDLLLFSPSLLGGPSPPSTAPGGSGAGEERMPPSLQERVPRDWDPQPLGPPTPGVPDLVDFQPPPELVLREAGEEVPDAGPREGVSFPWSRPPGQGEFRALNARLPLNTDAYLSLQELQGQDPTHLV
T4 sequence 2: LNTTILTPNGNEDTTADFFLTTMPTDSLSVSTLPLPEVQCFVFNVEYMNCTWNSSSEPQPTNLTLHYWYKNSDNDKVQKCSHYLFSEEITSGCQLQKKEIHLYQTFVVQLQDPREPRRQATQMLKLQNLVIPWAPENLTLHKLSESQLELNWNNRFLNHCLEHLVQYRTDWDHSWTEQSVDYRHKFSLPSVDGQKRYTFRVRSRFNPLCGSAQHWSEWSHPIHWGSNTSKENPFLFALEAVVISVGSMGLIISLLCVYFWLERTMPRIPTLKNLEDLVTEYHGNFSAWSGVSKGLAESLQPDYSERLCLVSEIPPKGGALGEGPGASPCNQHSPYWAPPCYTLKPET
Put plainly: flow cytometry cell binding on human CD4+ T-cells (PBMC), gMFI as fold over secondary antibody only. Here is the method:
as §2

The term Kd denotes the concentration at which binding is half-saturated. The term EC50 (read off the curve) denotes the concentration that produces a half-maximal response. A lower EC50 (read off the curve) goes with an effect from little substance.

B1: BsAb-2 (IL2RB_F09G**IL2RG_F16B) (bispecific antibody, human IgG4, V domains shown)
V domain 1: QVQLQESGPGLVKSSETLSLTCTVSGGSISSSDWWSWVRQPPGKGLEWIGEIDHSGSTNYNPSLMSRVTISVDKSKNQFSLKLSSVTAADTAVYFCARGSWELTDAFDIRGQGTLVTVSS
V domain 2: QVQLVESGGGLVKPGGSLRLSCAASGFTFSDYYMSWIRQAPGKGLEWVSYISSSGSTIYYADSVKGRFTISRDNAKNSLYLQMNSLRAEDTAVYYCARGDAVSITGDYRGQGTLVTVSS
notes: Heavy chain-only bispecific on silenced, stabilised human IgG4 Fc, knobs-into-holes, no light chains; not shown: C-terminal His-tag on the knob chain
As to B1, the Kd in test [1] amounted to 50.2 nM; in test [2], 17.1 nM. Moreover, the concentration giving a half-maximal response (EC50 (read off the curve)) in test [3] is approximately 2 nM; in test [4], approximately 4 nM.

B2: BsAb-6 (IL2RB_F18E**IL2RG_F16A) (bispecific antibody, human IgG4, V domains shown)
V domain 1: QVQLVESGGGVVQPGRSLRLSCAASGFTFSSYGMHWVRQAPGKEREWVAVISYDGSNKYYTDSVKGRFTISRDNSKNTLYLEMNSLRAEDTAVYYCARDLDYDVLTGDPVGGFDIWGQGTLVTVSS
V domain 2: QVQLVESGGGLVKPGGSLRLSCAASGFTFSDYYMSWIRQAPGKGLEWVSSISSSGDTIYYADSVQGRFTLSRDNAENSLFLQMNSLRAEDTAVYYCARGDAVSITGDYRGQGTLVTVSS
notes: as for B1
Take B2: the Kd in test [1] is 5.42 nM; in test [2] it was 1.88 nM. In addition, the figures for the “EC50 (read off the curve)” value in test [3] and in test [4] were approximately 20 nM and approximately 7 nM, respectively.

B3: BsAb-4 (IL2RB_F09G**IL2RG_F18A) (bispecific antibody, human IgG4, V domains shown)
V domain 1: QVQLQESGPGLVKSSETLSLTCTVSGGSISSSDWWSWVRQPPGKGLEWIGEIDHSGSTNYNPSLMSRVTISVDKSKNQFSLKLSSVTAADTAVYFCARGSWELTDAFDIRGQGTLVTVSS
V domain 2: QVQLVESGGDLVKPGGSLRLSCAASGFTFSDYYMSWLRQAPGKELEWVSHISSSGTTTYYADSVEGRFTITRDNAKNSLYLQMNSLRAEDTAVYYCARGAAVAPGFDSRGQGTLVTVSS
notes: as for B1
Turning to B3, the Kd in test [1] is 5.81 nM; in test [2] it was 2.93 nM. Further, the half-maximal effective concentration (EC50 (read off the curve)) in test [3] was approximately 10 nM; in test [4], approximately 4 nM.

B4: BsAb-3 (IL2RB_F09G**IL2RG_F16C) (bispecific antibody, human IgG4, V domains shown)
V domain 1: QVQLQESGPGLVKSSETLSLTCTVSGGSISSSDWWSWVRQPPGKGLEWIGEIDHSGSTNYNPSLMSRVTISVDKSKNQFSLKLSSVTAADTAVYFCARGSWELTDAFDIRGQGTLVTVSS
V domain 2: QVQLVESGGGLVKPGGSLRLSCAASGFTFNDYYMSWIRQAPGKGLEWVSHISSSGSTIYYADSVKGRFTVSRDNANNSLYLQMHSLRAEDTAVYYCARGDAVSITGDYRGQGTLVTVSS
notes: as for B1
With B4, the Kd came to 3.58 nM in test [1] and 1.43 nM in test [2]. Besides, the “EC50 (read off the curve)” value in test [3] is approximately 10 nM; in test [4], approximately 7 nM.

B5: BsAb-1 (IL2RB_F09C**IL2RG_F16A) (bispecific antibody, human IgG4, V domains shown)
V domain 1: QVQLQESGPGLVKPSGTLSLTCAVSGGSISSSDWWSWVRQPPGKGLEWIGEIDHSGSTNYNPSLMSRVTISVDKSKNQFSLKLSSVTAADTAVYFCGRGSWELSDAFDIRGQGTLVTVSS
V domain 2: QVQLVESGGGLVKPGGSLRLSCAASGFTFSDYYMSWIRQAPGKGLEWVSSISSSGDTIYYADSVQGRFTLSRDNAENSLFLQMNSLRAEDTAVYYCARGDAVSITGDYRGQGTLVTVSS
notes: as for B1
On to B5, for which the dissociation constant (Kd) in test [1] is 4.87 nM; in test [2], 1.79 nM. The “EC50 (read off the curve)” value in test [3] is approximately 20 nM; in test [4] it was approximately 7 nM.

B6: BsAb-5 (IL2RB_F09K**IL2RG_F16B) (bispecific antibody, human IgG4, V domains shown)
V domain 1: QVQLQESSPGLVKPSETLSLTCTVSGGSISSSNWWSWVRQPPGKGLEWIGEISHSGSTNYNPSLKSRVTISVDKSKNQFSLRLSSVTAADTAVYFCGRGSWELTDAFDIRGQGTLVTVSS
V domain 2: QVQLVESGGGLVKPGGSLRLSCAASGFTFSDYYMSWIRQAPGKGLEWVSYISSSGSTIYYADSVKGRFTISRDNAKNSLYLQMNSLRAEDTAVYYCARGDAVSITGDYRGQGTLVTVSS
notes: as for B1
For the molecule B6, the dissociation constant Kd amounted to 41.5 nM in test [1] and 20.1 nM in test [2]. Also, the “EC50 (read off the curve)” value in test [3] was approximately 4 nM. Moreover, the binding result in test [4] is listed as “binds”.
